This experiment has as its target Proprotein Convertase Subtilisin/Kexin type 9 (PCSK9), human plasma (human (endogenous in plasma)) (UniProt Q8NBP7).
UniProt Q8NBP7, sequence (Q8NBP7 153-692): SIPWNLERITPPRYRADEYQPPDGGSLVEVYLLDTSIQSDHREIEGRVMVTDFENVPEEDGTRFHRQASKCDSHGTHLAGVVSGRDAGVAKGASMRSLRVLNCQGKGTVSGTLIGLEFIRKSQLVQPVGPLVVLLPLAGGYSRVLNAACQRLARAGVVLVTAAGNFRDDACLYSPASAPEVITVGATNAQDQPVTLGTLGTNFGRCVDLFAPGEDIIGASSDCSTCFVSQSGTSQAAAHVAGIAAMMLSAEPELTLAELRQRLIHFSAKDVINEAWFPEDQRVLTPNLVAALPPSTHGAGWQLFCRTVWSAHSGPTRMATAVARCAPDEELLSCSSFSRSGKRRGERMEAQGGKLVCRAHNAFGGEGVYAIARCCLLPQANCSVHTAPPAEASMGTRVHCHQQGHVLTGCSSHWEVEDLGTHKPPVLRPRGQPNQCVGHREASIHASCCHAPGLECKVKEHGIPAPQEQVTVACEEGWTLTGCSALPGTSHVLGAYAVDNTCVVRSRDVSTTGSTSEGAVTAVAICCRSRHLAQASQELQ

Substance “apolipoprotein B-100 (apoB-100) of human plasma LDL and Lp(a) (from UniProt P04114 28-4563) (natural protein)” gave a percent of plasma PCSK9 associated with apoB of 37%.

For the origin of these results see PMC4920709.
